Source: paper PMC4117426, “SlmA Antagonism of FtsZ Assembly Employs a Two-pronged Mechanism like MinCD” (PLoS Genetics, 2014)

B5: FtsZ (natural protein, E. coli, UniProt P0A9A6 1-383, looked up)
chain: MFEPMELTNDAVIKVIGVGGGGGNAVEHMVRERIEGVEFFAVNTDAQALRKTAVGQTIQIGSGITKGLGAGANPEVGRNAADEDRDALRAALEGADMVFIAAGMGGGTGTGAAPVVAEVAKDLGILTVAVVTKPFNFEGKKRMAFAEQGITELSKHVDSLITIPNDKLLKVLGRGISLLDAFGAANDVLKGAVQGIAELITRPGLMNVDFADVRTVMSEMGYAMMGSGVASGEDRAEEAAEMAISSPLLEDIDLSGARGVLVNITAGFDLRLDEFETVGNTIRAFASDNATVVIGTSLDPDMNDELRVTVVATGIGMDKRPEITLVTNKQVQQPVMDRYQQHGMAPLTQEQKPVAKVVNDNAPQTAKEPDYLDIPAFLRKQAD
notes: FtsZ, E. coli, untagged, from pSEB160; also called FtsZ-WT; WT FtsZ
B6: 6×His-FtsZ (natural protein, E. coli, UniProt P0A9A6 1-383, looked up)
chain: MFEPMELTNDAVIKVIGVGGGGGNAVEHMVRERIEGVEFFAVNTDAQALRKTAVGQTIQIGSGITKGLGAGANPEVGRNAADEDRDALRAALEGADMVFIAAGMGGGTGTGAAPVVAEVAKDLGILTVAVVTKPFNFEGKKRMAFAEQGITELSKHVDSLITIPNDKLLKVLGRGISLLDAFGAANDVLKGAVQGIAELITRPGLMNVDFADVRTVMSEMGYAMMGSGVASGEDRAEEAAEMAISSPLLEDIDLSGARGVLVNITAGFDLRLDEFETVGNTIRAFASDNATVVIGTSLDPDMNDELRVTVVATGIGMDKRPEITLVTNKQVQQPVMDRYQQHGMAPLTQEQKPVAKVVNDNAPQTAKEPDYLDIPAFLRKQAD
notes: FtsZ, E. coli; 6×His-tagged ftsZ amplified from pSEB160 (pSD119); By the printed primer the six His codons follow the start codon and precede Phe2; also called 6×His-tagged FtsZ-FL; source: E. coli JS238 with pSD119, purified (Ni-NTA); not shown: His6, N-terminal, kept

Assays:
[1] = target: B5; experiment: BLI; competition: SlmA/SBS17-30mer on streptavidin tips; 4 µM FtsZ preincubated with various concentrations of ZipA185-328 (with GDP); conditions: both partners purified
[2] = target: B6; experiment: BLI; 6×His-FtsZ or variant (1 µM) immobilised on Ni-NTA tips; untagged SlmA preincubated with SBS17-30mer DNA in solution; 1× Pol buffer, room temperature; global fitting; conditions: both partners purified
[3] = target: T1, 6×His-FtsZ-K190V (E. coli, UniProt P0A9A6 1-383, K190V); experiment: as above; conditions: both partners purified
T1 construct: FtsZ, E. coli, His-tagged, with K190V; the construct is not described in the methods; Probably a derivative of pSD119 (N-terminal His6, full length)
T1 sequence (looked up): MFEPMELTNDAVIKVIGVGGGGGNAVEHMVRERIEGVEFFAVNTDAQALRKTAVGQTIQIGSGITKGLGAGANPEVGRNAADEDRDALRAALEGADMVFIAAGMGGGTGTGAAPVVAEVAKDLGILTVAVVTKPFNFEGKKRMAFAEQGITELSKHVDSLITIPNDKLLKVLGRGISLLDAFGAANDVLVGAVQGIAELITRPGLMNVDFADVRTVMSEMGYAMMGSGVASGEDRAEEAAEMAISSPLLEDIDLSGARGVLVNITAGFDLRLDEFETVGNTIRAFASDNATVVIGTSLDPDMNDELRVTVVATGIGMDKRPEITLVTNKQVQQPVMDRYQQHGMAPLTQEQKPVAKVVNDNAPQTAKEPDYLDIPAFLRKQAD

[4] = target: T2, 6×His-FtsZ (E. coli, UniProt P0A9A6 1-383); experiment: BLI; 6×His-FtsZ (loaded at 1 µM) immobilised on Ni-NTA biosensor; untagged SlmA preincubated with SBS-14mer DNA in solution; 1× Pol buffer (50 mM HEPES-NaOH pH 8.0, 200 mM KCl, 10 mM MgCl2), room temperature; global fit (GraphPad Prism 5); conditions: both partners purified
T2 construct: FtsZ of E. coli, full length (FtsZ-FL), with an N-terminal 6×His tag, from pSD119; By the primer His-FtsZ-SstI the chain begins M-HHHHHH and goes on with F2 of FtsZ (FEPMELT...); also called 6×His-tagged FtsZ-FL; source: E. coli JS238 with pSD119, arabinose induced, purified (Ni-NTA); not shown: His6, N-terminal, kept
T2 sequence (looked up): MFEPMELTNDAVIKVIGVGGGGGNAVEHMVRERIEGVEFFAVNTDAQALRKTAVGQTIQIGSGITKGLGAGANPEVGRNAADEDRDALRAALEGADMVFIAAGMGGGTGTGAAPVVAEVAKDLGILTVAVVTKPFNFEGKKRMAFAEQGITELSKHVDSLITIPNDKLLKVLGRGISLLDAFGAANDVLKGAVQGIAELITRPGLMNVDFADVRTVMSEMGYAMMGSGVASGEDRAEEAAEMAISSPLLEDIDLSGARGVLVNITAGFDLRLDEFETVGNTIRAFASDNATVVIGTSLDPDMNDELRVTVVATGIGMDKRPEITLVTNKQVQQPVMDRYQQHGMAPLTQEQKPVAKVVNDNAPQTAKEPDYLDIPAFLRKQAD

[5] = target: T2, 6×His-FtsZ; experiment: BLI; 6×His-FtsZ (loaded at 1 µM) immobilised on Ni-NTA biosensor; untagged SlmA preincubated with SBS-18mer DNA in solution; 1× Pol buffer (50 mM HEPES-NaOH pH 8.0, 200 mM KCl, 10 mM MgCl2), room temperature; global fit (GraphPad Prism 5); conditions: both partners purified
[6] = target: T2, 6×His-FtsZ; experiment: BLI; 6×His-FtsZ (loaded at 1 µM) immobilised on Ni-NTA biosensor; untagged SlmA preincubated with SBS17-30mer DNA in solution; 1× Pol buffer (50 mM HEPES-NaOH pH 8.0, 200 mM KCl, 10 mM MgCl2), room temperature; global fit (GraphPad Prism 5); conditions: both partners purified
[7] = target: T2, 6×His-FtsZ; experiment: BLI; 6×His-FtsZ (loaded at 1 µM) immobilised on Ni-NTA biosensor; untagged SlmA preincubated with SBS17-20mer DNA in solution; 1× Pol buffer (50 mM HEPES-NaOH pH 8.0, 200 mM KCl, 10 mM MgCl2), room temperature; global fit (GraphPad Prism 5); conditions: both partners purified
[8] = target: T2, 6×His-FtsZ; experiment: BLI; 6×His-FtsZ (loaded at 1 µM) immobilised on Ni-NTA biosensor; untagged SlmA without SBS DNA in solution; 1× Pol buffer (50 mM HEPES-NaOH pH 8.0, 200 mM KCl, 10 mM MgCl2), room temperature; global fit (GraphPad Prism 5); conditions: both partners purified
[9] = target: the molecule itself; experiment: negative-stain electron microscopy of polymers; FtsZ or variant 2 µM with 1 mM GTP in Pol buffer (50 mM HEPES-NaOH pH 8.0, 200 mM KCl, 10 mM MgCl2), room temperature 5 min, 1% uranyl acetate; self-assembly into filaments

B1: ZipA_(185–328) (domain or fragment)
chain: not shown
notes: amplified from chromosomal DNA; also called C-terminal domain of ZipA; source: expressed from pSD198 (pQE80 derivative)
[1]
  percent decrease of the FtsZ binding signal on SlmA/SBS17-30mer at a 1:1 ratio of FtsZ to ZipA185-328: ~30%

B2: untagged SlmA (natural protein, E. coli, UniProt P0C093 1-198, looked up)
chain: MAEKQTAKRNRREEILQSLALMLESSDGSQRITTAKLAASVGVSEAALYRHFPSKTRMFDSLIEFIEDSLITRINLILKDEKDTTARLRLIVLLLLGFGERNPGLTRILTGHALMFEQDRLQGRINQLFERIEAQLRQVLREKRMREGEGYTTDETLLASQILAFCEGMLSRFVRSEFKYRPTDDFDARWPLIAAQLQ
notes: SlmA, E. coli; Used with or without SBS DNA on 6×His-FtsZ tips; also called SlmA (untagged version); source: E. coli BL21 (λDE3)/pLysS with pSUMO-SlmA, purified (Ni-NTA; tag cleaved with Ulp1, flow-through collected)
[2]
  Kd: 210 nM
[3]
  binding result: binds

B3: SlmA (untagged version) (natural protein, E. coli, UniProt P0C093 1-198, looked up)
chain: MAEKQTAKRNRREEILQSLALMLESSDGSQRITTAKLAASVGVSEAALYRHFPSKTRMFDSLIEFIEDSLITRINLILKDEKDTTARLRLIVLLLLGFGERNPGLTRILTGHALMFEQDRLQGRINQLFERIEAQLRQVLREKRMREGEGYTTDETLLASQILAFCEGMLSRFVRSEFKYRPTDDFDARWPLIAAQLQ
notes: SlmA of E. coli; The forward primer slmA-SUMO-F begins at the second codon (GCA, Ala2), so the cleaved protein probably lacks the first methionine; also called SlmA-WT; nucleoid occlusion factor SlmA; source: E. coli BL21 (λDE3)/pLysS with pSUMO-SlmA, purified (Ni-NTA; H-SUMO tag cleaved with Ulp1, tag and protease removed on Ni-NTA); not shown: His-SUMO (H-SUMO), N-terminal, cleaved
[4]
  Kd: 206 nM
  koff: 0.0057 s⁻¹
  kon: 27500 M⁻¹ s⁻¹
[5]
  Kd: 309 nM
  koff: 0.0067 s⁻¹
  kon: 21600 M⁻¹ s⁻¹
[6]
  koff: 0.0155 s⁻¹
  kon: 74000 M⁻¹ s⁻¹
[7]
  Kd: 789 nM
  koff: 0.0143 s⁻¹
  kon: 18100 M⁻¹ s⁻¹
[8]
  Kd: 21000 nM
  koff: 0.149 s⁻¹
  kon: 7100 M⁻¹ s⁻¹

B4: 6×His-FtsZ360 (domain or fragment, E. coli, UniProt P0A9A6 1-360, looked up)
chain: MFEPMELTNDAVIKVIGVGGGGGNAVEHMVRERIEGVEFFAVNTDAQALRKTAVGQTIQIGSGITKGLGAGANPEVGRNAADEDRDALRAALEGADMVFIAAGMGGGTGTGAAPVVAEVAKDLGILTVAVVTKPFNFEGKKRMAFAEQGITELSKHVDSLITIPNDKLLKVLGRGISLLDAFGAANDVLKGAVQGIAELITRPGLMNVDFADVRTVMSEMGYAMMGSGVASGEDRAEEAAEMAISSPLLEDIDLSGARGVLVNITAGFDLRLDEFETVGNTIRAFASDNATVVIGTSLDPDMNDELRVTVVATGIGMDKRPEITLVTNKQVQQPVMDRYQQHGMAPLTQEQKPVAKVVND
notes: FtsZ, E. coli, truncated by two stop codons after codon 360; lacks the conserved C-terminal tail; source: E. coli JS238 with pSD119-Z360, purified (Ni-NTA); not shown: His6, N-terminal, kept
[9]
  binding result: binds

## B5
[9]
  binding result: binds

## B6
[9]
  binding result: binds

B7: FtsZ-K190V (natural protein, E. coli, UniProt P0A9A6 1-383, looked up)
chain: MFEPMELTNDAVIKVIGVGGGGGNAVEHMVRERIEGVEFFAVNTDAQALRKTAVGQTIQIGSGITKGLGAGANPEVGRNAADEDRDALRAALEGADMVFIAAGMGGGTGTGAAPVVAEVAKDLGILTVAVVTKPFNFEGKKRMAFAEQGITELSKHVDSLITIPNDKLLKVLGRGISLLDAFGAANDVLVGAVQGIAELITRPGLMNVDFADVRTVMSEMGYAMMGSGVASGEDRAEEAAEMAISSPLLEDIDLSGARGVLVNITAGFDLRLDEFETVGNTIRAFASDNATVVIGTSLDPDMNDELRVTVVATGIGMDKRPEITLVTNKQVQQPVMDRYQQHGMAPLTQEQKPVAKVVNDNAPQTAKEPDYLDIPAFLRKQAD
notes: FtsZ, E. coli, untagged, with K190V; pSEB160 derivative
[9]
  binding result: binds

B8: FtsZ-D86N (natural protein, E. coli, UniProt P0A9A6 1-383, looked up)
chain: MFEPMELTNDAVIKVIGVGGGGGNAVEHMVRERIEGVEFFAVNTDAQALRKTAVGQTIQIGSGITKGLGAGANPEVGRNAADEDRNALRAALEGADMVFIAAGMGGGTGTGAAPVVAEVAKDLGILTVAVVTKPFNFEGKKRMAFAEQGITELSKHVDSLITIPNDKLLKVLGRGISLLDAFGAANDVLKGAVQGIAELITRPGLMNVDFADVRTVMSEMGYAMMGSGVASGEDRAEEAAEMAISSPLLEDIDLSGARGVLVNITAGFDLRLDEFETVGNTIRAFASDNATVVIGTSLDPDMNDELRVTVVATGIGMDKRPEITLVTNKQVQQPVMDRYQQHGMAPLTQEQKPVAKVVNDNAPQTAKEPDYLDIPAFLRKQAD
notes: FtsZ, E. coli, untagged, with D86N; pSEB160 derivative
[9]
  binding result: binds
